Assay results: patent US20230340132A1, “ANTI-ADENOSINE RECEPTOR (A2aR) ANTIBODIES” (NA Biotech Corp, priority 2020, published 2023)
Changes are numbered by the printed parent chain. Each block holds one molecule with its values, some of them ahead of it.

Tests used:
tumor = settings: mice treated with A2aR antagonist; background statement; cited from earlier work
[1] = target: human adenosine receptor A1 (human) (UniProt P30542); assay: flow cytometry on HEK293T-A1 cells; isotype control 10 nM; duplicate 1
Chain of human adenosine receptor A1 (human) (P30542 whole entry): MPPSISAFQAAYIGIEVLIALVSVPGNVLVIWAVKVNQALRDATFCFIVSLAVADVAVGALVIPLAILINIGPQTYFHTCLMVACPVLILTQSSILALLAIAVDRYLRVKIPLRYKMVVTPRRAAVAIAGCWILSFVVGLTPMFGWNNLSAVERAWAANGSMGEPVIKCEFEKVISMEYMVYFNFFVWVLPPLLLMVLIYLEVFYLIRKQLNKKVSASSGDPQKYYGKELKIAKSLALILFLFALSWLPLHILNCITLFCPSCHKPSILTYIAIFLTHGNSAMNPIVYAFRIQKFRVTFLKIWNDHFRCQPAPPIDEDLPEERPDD

[2] = target: human adenosine receptor A1 (human) (UniProt P30542); assay: flow cytometry on HEK293T-A1 cells; isotype control 10 nM; duplicate 2
[3] = target: human adenosine receptor A1 (human) (UniProt P30542); assay: flow cytometry on HEK293T-A1 cells; isotype control 50 nM; duplicate 1
[4] = target: human adenosine receptor A1 (human) (UniProt P30542); assay: flow cytometry on HEK293T-A1 cells; isotype control 50 nM; duplicate 2
[5] = target: T1, human adenosine receptor A3 (human, UniProt P0DMS8 1-318); assay: flow cytometry on HEK293T-A3 cells; isotype control 10 nM; duplicate 1
T1 construct: whole, on cells; the tag is not described; also called A3R; human A3R
T1 sequence (looked up): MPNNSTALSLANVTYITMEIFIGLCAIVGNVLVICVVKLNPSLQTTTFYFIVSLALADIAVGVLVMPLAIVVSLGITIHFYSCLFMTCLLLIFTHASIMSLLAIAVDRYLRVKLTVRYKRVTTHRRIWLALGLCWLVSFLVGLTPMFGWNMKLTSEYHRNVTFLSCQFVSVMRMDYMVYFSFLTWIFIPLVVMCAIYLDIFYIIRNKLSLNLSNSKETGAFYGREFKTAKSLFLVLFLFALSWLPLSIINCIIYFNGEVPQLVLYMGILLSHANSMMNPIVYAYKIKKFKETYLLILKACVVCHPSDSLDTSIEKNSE

[6] = target: T1, human adenosine receptor A3; assay: flow cytometry on HEK293T-A3 cells; isotype control 10 nM; duplicate 2
[7] = target: T1, human adenosine receptor A3; assay: flow cytometry on HEK293T-A3 cells; isotype control 50 nM; duplicate 1
[8] = target: T1, human adenosine receptor A3; assay: flow cytometry on HEK293T-A3 cells; isotype control 50 nM; duplicate 2
[9] = target: T2, human adenosine A2A receptor (A2aR) (human, UniProt P29274 1-412); assay: flow cytometry on HEK293T-A2A cells; isotype control 10 nM; duplicate 1
T2 sequence (P29274 whole entry): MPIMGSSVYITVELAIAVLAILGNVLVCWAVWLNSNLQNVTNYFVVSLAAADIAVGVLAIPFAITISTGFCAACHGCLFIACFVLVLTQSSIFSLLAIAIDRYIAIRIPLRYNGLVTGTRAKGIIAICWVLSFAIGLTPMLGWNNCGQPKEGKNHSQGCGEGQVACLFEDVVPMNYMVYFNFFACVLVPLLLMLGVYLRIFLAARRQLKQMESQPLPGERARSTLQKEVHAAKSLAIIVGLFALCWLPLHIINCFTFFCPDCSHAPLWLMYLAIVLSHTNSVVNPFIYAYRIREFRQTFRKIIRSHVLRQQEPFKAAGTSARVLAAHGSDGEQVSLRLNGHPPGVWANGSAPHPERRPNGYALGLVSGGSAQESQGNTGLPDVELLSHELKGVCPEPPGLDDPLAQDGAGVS

[10] = target: T2, human adenosine A2A receptor (A2aR); assay: flow cytometry on HEK293T-A2A cells; isotype control 10 nM; duplicate 2
[11] = target: T2, human adenosine A2A receptor (A2aR); assay: flow cytometry on HEK293T-A2A cells; isotype control 50 nM; duplicate 1
[12] = target: T2, human adenosine A2A receptor (A2aR); assay: flow cytometry on HEK293T-A2A cells; isotype control 50 nM; duplicate 2
[13] = target: T3, human adenosine receptor A2B (human, UniProt P29275 1-332); assay: flow cytometry on HEK293T-A2B cells; isotype control 10 nM; duplicate 1
T3 construct: whole, on cells; the tag is not described; also called A2bR; human A2bR
T3 sequence (looked up): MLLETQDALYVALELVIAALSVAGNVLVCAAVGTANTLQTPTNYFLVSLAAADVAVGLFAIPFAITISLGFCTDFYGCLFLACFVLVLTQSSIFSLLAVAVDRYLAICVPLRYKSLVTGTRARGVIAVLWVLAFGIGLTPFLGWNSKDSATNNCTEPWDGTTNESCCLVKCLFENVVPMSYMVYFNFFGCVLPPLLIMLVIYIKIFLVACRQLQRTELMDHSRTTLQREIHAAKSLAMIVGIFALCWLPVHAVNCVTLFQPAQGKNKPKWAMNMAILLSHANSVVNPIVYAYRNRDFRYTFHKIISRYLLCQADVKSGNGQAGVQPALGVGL

[14] = target: T3, human adenosine receptor A2B; assay: flow cytometry on HEK293T-A2B cells; isotype control 10 nM; duplicate 2
[15] = target: T3, human adenosine receptor A2B; assay: flow cytometry on HEK293T-A2B cells; isotype control 50 nM; duplicate 1
[16] = target: T3, human adenosine receptor A2B; assay: flow cytometry on HEK293T-A2B cells; isotype control 50 nM; duplicate 2
[17] = target: T4, mouse adenosine receptor A2A (mouse, UniProt Q60613 1-410); assay: flow cytometry on HEK293T-mA2A cells; isotype control 10 nM; duplicate 1
T4 construct: whole, on cells; the tag is not described; also called mouse A2aR; mouse A2R
T4 sequence (Q60613 whole entry): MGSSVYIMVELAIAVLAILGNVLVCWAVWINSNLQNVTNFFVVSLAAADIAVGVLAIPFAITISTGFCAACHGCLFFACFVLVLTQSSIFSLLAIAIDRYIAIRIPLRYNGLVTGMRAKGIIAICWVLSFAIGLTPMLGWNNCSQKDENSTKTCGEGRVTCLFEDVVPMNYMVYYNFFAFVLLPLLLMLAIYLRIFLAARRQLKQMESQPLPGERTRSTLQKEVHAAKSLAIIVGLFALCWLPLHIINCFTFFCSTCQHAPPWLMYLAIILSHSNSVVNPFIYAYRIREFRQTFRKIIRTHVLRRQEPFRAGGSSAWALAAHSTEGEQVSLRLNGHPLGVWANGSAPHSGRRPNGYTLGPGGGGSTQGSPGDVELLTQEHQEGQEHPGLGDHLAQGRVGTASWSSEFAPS

[18] = target: T4, mouse adenosine receptor A2A; assay: flow cytometry on HEK293T-mA2A cells; isotype control 10 nM; duplicate 2
[19] = target: T4, mouse adenosine receptor A2A; assay: flow cytometry on HEK293T-mA2A cells; isotype control 50 nM; duplicate 1
[20] = target: T4, mouse adenosine receptor A2A; assay: flow cytometry on HEK293T-mA2A cells; isotype control 50 nM; duplicate 2
[21] = target: human adenosine receptor A1 (human) (UniProt P30542); assay: flow cytometry on HEK293T-A1 cells; anti-FLAG 2 ug/mL, positive control; duplicate 1
[22] = target: human adenosine receptor A1 (human) (UniProt P30542); assay: flow cytometry on HEK293T-A1 cells; anti-FLAG 2 ug/mL, positive control; duplicate 2
[23] = target: T1, human adenosine receptor A3; assay: flow cytometry on HEK293T-A3 cells; anti-FLAG 2 ug/mL, positive control; duplicate 1
[24] = target: T1, human adenosine receptor A3; assay: flow cytometry on HEK293T-A3 cells; anti-FLAG 2 ug/mL, positive control; duplicate 2
[25] = target: T2, human adenosine A2A receptor (A2aR); assay: flow cytometry on HEK293T-A2A cells; anti-FLAG 2 ug/mL, positive control; duplicate 1
[26] = target: T2, human adenosine A2A receptor (A2aR); assay: flow cytometry on HEK293T-A2A cells; anti-FLAG 2 ug/mL, positive control; duplicate 2
[27] = target: T3, human adenosine receptor A2B; assay: flow cytometry on HEK293T-A2B cells; anti-FLAG 2 ug/mL, positive control; duplicate 1
[28] = target: T3, human adenosine receptor A2B; assay: flow cytometry on HEK293T-A2B cells; anti-FLAG 2 ug/mL, positive control; duplicate 2
[29] = target: T4, mouse adenosine receptor A2A; assay: flow cytometry on HEK293T-mA2A cells; anti-FLAG 2 ug/mL, positive control; duplicate 1
[30] = target: T4, mouse adenosine receptor A2A; assay: flow cytometry on HEK293T-mA2A cells; anti-FLAG 2 ug/mL, positive control; duplicate 2
[31] = target: T2, human adenosine A2A receptor (A2aR); assay: cell-based or functional assay
[32] = target: T1, human adenosine receptor A3; assay: flow cytometry on HEK293T cells stably expressing human A3R
[33] = target: T3, human adenosine receptor A2B; assay: flow cytometry on HEK293T cells stably expressing human A2bR
[34] = target: T4, mouse adenosine receptor A2A; assay: flow cytometry on HEK293T cells stably expressing mouse A2aR
human A2aR = target: T5, human A2aR (Homo sapiens, UniProt P29274); assay: FACS screening of hybridoma clones on human A2aR-expressing Expi293 cells; type: binding; settings: antibodies from hybridoma clones
T5 construct: expressed in transfected cells; host or cells: Expi293
T5 sequence (P29274 whole entry): as the sequence (P29274 whole entry) above
Protocol: (§1) Serum titration was performed using Fluorescence-Activated Cell Sorting (FACS) pursuant to standard procedures. Human A2aR-expressing Expi293 cells were first added to 96-well plate (1×10^5 cells per well), 50 μl of serial diluted serum (1:50, 1;150, 1:450, 1:[…], 1:12150) from each individual mouse was incubated with cells for 30 min. on ice. After washing with FACS buffer (2% Fetal bovine serum, 2 mM EDTA in PBS), Alex Fluor 647-conjugated anti mouse IgG was added and incubated for 20 min on ice. Cells were resuspending with 100 μl FACS buffer after two times wash and ready for FACS analysis (BD LSR II Flow Cytometer, HTS). […] (MFI: mean fluorescence intensity).
(§2) Primary screening of the hybridoma supernatants in the 96-well plates was performed using the same FACS procedure as described for serum titration except following changes: 1) Human A2aR-expressing Expi293 cells (expressing GFP) were mixed at 1:1 ratio with parental Expi293 (no A2aR expression) and added to 96-well plates (2×10^5 cells per well), 2) 50 μl hybridoma supernatant transferred from each well of 96-well plates was incubated with cells for 30 min. on ice.
(§3) Sub-cloning was performed by limiting dilution method. In short, the positive wells identified by FACS were seeded into 96-well plate at an average density of 1 cell/well. The […] was placed in incubator for 7-10 days to allow the growth of the cells. The growth of cells was monitored periodically. At about day 4, the wells on the plate were observed under phase contrast microscopy and the wells which appeared to have single colony growing (i.e., only one clumping of hybridomas) were recorded. The cells from the single colony wells were screed by FACS using the same procedure as described for primary screening of hybridoma when the confluence of the cell reached about 50%.

parental Expi293 cells = assay: FACS screening of hybridoma clones on parental Expi293 cells; type: binding; settings: antibodies from hybridoma clones
Protocol: as §1, §2, §3

Molecule: Nc1nc(NCCc2ccc(O)cc2)nc2nc(-c3ccco3)nn12 [ZM241385]
tumor growth (tumor): significant delay in tumor growth

Molecule: Anti-FLAG antibody (Abcam, ab72469)
Geo Mean [21]: 53.3
Geo Mean [22]: 121
Geo Mean [23]: 48.2
Geo Mean [24]: 47.4
Geo Mean [25]: 183
Geo Mean [26]: 223
Geo Mean [27]: 78.6
Geo Mean [28]: 50.1
Geo Mean [29]: 70.4
Geo Mean [30]: 105

B1: anti-human A2aR monoclonal antibody 3F6-9G5 (mouse IgG2a format) (antibody, V domains shown)
VH: QVQLQQPGTELVKPGAPVRLSCKASGFAFTSYWMNWVRQRPGRGLEWIGRIDPSDSEAHYHHKFWGKATLTVDKSSSTVYIQLNGLTSEDSAVYYCLRSLYGKGDYWGHGTTLTVSS
VL: DVLMTQTPLSLSVRLGDQASISCRSSQSLVHRNGNTYLEWYLQRPGQSPKLLIYKVSNRFSGVPDRFSGSGSGTDFTLKISRVEAEDLGVYYCYQGSHVPLTFGSGTKLEIK
notes: Tested as whole mouse IgG2a / kappa, purified from hybridoma supernatant or made recombinantly in Expi293 cells
IC50 (M), cAMP-Glo assay of NECA-induced cAMP in HEK293 cells stably expressing human A2aR [31]: 1.57e-09 M
binding result [32]: no binding (tested: 2, 10 and 50 nM tested)
binding result [33]: no binding (tested: 2, 10 and 50 nM tested)
binding result [34]: no binding (tested: 2, 10 and 50 nM tested)

Now from value to molecule, other results behind:

Geo Mean [1]: 2.48
Geo Mean [2]: 2.24
Geo Mean [3]: 2.5
Geo Mean [4]: 2.7
Geo Mean [5]: 1.9
Geo Mean [6]: 1.81
Geo Mean [7]: 1.87
Geo Mean [8]: 1.84
Geo Mean [9]: 2.97
Geo Mean [10]: 2.82
Geo Mean [11]: 2.92
Geo Mean [12]: 2.83
Geo Mean [13]: 2.42
Geo Mean [14]: 2.41
Geo Mean [15]: 2.33
Geo Mean [16]: 2.69
Geo Mean [17]: 2
Geo Mean [18]: 2.39
Geo Mean [19]: 2.05
Geo Mean [20]: 2.06
Molecule: mouse IgG2a isotype control (antibody)

IC50 (M), cAMP-Glo assay of NECA-induced cAMP in HEK293 cells stably expressing human A2aR [31]: 4.35e-09 M
binding to human A2aR-expressing cells (FIG. 2) (human A2aR): specific binding
B2: anti-human A2aR monoclonal antibody 3F8-12E9 (antibody, mouse IgG2a, V domains shown)
VH: B1 VH with R19K, A28T, S31R, R38K, A58T, H61N, V79A, G85S, H109Q
VL: B1 VL with R14G, L29I, R32S
binding to parental Expi293 cells (FIG. 2) (parental Expi293 cells): not to parental Expi293 cells
